Test results published in PMC5415192, “Zebrafish GDNF and its co-receptor GFRα1 activate the human RET receptor and promote the survival of dopaminergic neurons in vitro” (PLoS ONE, 2017).

B3: Zebrafish (Danio rerio) RET extracellular domain (residues 22-626) (domain or fragment, UniProt A8E7C6 22-626, looked up)
chain: GLYFPQRLYTENIYVGQQQGSPLLQVISMREFPTERPYFFLCSHRDAFTSWFHIDEASGVLYLNKTLEWSDFSSLRSGSVRSPKDLTLKVGVSSTPPMKVMCTILPTVEVKLSFINDTAPSCGQVELSTLCFPEKISNPHITENREPGALRQLRRFTHMSICPNYTISYGVVAGSSVPFAVDDSTSELVVTAQVDREEKEVYHLDIVCMVRTERNLEEVFRSLHVNIYDEDDNSPYVNGTDTEDVLVEFDRSEGTVFGTLFVYDRDTTPVYPTNQVQNKLVGTLMTNDSWIKNNFAIEHKFREEKAIFGNVRGTVHEYKLKLSQNLSVTEQRSFLLGYLVNDTTFPGPEGTVLLHFNVTVLPVPIRFSNVTYSFTVSQKATTYSQIGKVCVENCQKFKGIDVTYQLEIVDRNITAEAQSCYWAVSLAQNPNDNTGVLYVNDTKVLRRPECQELEYVVIAQEQQNKLQAKTQLTVSFQGEADSLKTDEPRFPACAEKRQRGDCEATRGLGAPTGRCQWRQGRDKGISKRYSTCSPNLGTCPDGYCDAIESKNISICPQDCSSEAIIGGYERDLYGIKAGHGTCYCFEGKCFCERDEPEDDICNDMC
notes: RET, Danio rerio, UniProt A8E7C6, extracellular domain, residues 22-626; cloned from zRET-CS2-MT+; The protein is glycosylated; also called zRET^ecd; zRET; source: Hi5 insect cells, baculovirus, secreted

Tests used:
[1] = molecular target: B3; experiment: BLI; BLItz; His-tagged zGFRα1 (58 μM, 4 μl) immobilised on Ni-NTA tips; pre-mixed zRET^ecd and zGDNF at 0.3-44 μM; 20 mM HEPES pH 8, 150 mM NaCl, 1 mM CaCl2; plateau values fitted as Scatchard plots; triplicate; conditions: both partners purified
[2] = molecular target: the molecule itself; experiment: SDS-PAGE with and without DTT; purified zGDNF on a Coomassie-stained gel, with 1 mM DTT or without
[3] = molecular target: the molecule itself; experiment: SEC + native gel or EMSA; affinity-purified zRET^ecd separated by SEC into two peaks; fractions and pools run on BN-PAGE and SDS-PAGE

B1: Complex of His-tagged zebrafish GFRα1 (residues 31-351) and zebrafish GDNF (complex, zebrafish (Danio rerio))
chain 1: DCVKANELCLKEPGCSSKYRTMRQCVAGRESNFSMATGMEAKDECRLVLDALKQSPLYNCRCKRGMKKEKNCLRIYWGIYQHLQGNDLLEDSPYEPVNSRLSDIFRLAPIYSGEPALAKENNCLNAAKACNLNDTCKKYRSAYISPCTSRVSTAEVCNKRKCHKALRQFFDKVPPKHSYGMLYCSCPLGDQSACSERRRQTIVPACSYEDKERPNCLTLQVSCKTNYICRSRLADFFTNCQPEPLSLSGCLKENYADCLLSYSGLIGTVMTPNYLRSPKISVSPFCDCSSSGNSKEECDRFTEFFTDNACLRNAIQAFGNG
chain 2: SSDVEPQMKRDRVRQKAAANTEKSGGRGRGERKRSRGRARSRDDRVKGQGRGCLLKEIHLNVTDLDLGYRTKEELIFRYCSGPCHDAETNYDKILNNLTHNKKLDKDTPSRTCCRPIAFDDDISFLDDSLEYHTLKKHSAKKCACV
notes: GDNF family receptor alpha-1, Danio rerio, UniProt Q98TT9, residues 31-351, lacking the GPI-anchor; Glial cell line-derived neurotrophic factor, Danio rerio, UniProt Q98TU0, mature GDNF, residues 90-236; as m6; In the BLI experiment His-tagged zGFRα1 was held on the Ni-NTA tip, and zGDNF was supplied pre-mixed with zRET^ecd; The stoichiometry of the complex was not measured here; also called …
[1]
  Kd: 5.9 ± 1.5 µM

B2: Zebrafish (Danio rerio) mature GDNF (residues 90-236) (ligand, UniProt Q98TU0 90-235, looked up)
chain: SSDVEPQMKRDRVRQKAAANTEKSGGRGRGERKRSRGRARSRDDRVKGQGRGCLLKEIHLNVTDLDLGYRTKEELIFRYCSGPCHDAETNYDKILNNLTHNKKLDKDTPSRTCCRPIAFDDDISFLDDSLEYHTLKKHSAKKCACV
notes: Glial cell line-derived neurotrophic factor, Danio rerio, UniProt Q98TU0, mature GDNF, residues 90-236; 'zGDNF' is the construct in the original pK503.9 vector (Flag-tag only); Whether its Flag tag was removed is not clear; It appears as a mixture of a DTT-sensitive dimer and monomer, and it is glycosylated; also called zGDNF; zebrafish GDNF; source: Hi5 insect cells, baculovirus, secreted; …
[2]
  stoichiometry N: 2

## B3
[3]
  stoichiometry N: 2
